From FireProtDB (doi:10.1021/bi9815243)

Settings: whole UniProt chain shown; for denaturant m value / denaturant midpoint (higher = more stable) / unfolding free energy: 25 °C, Urea; for Tm / unfolding enthalpy (van 't Hoff): Thermal
[1] = Aspergillus oryzae (strain ATCC 42149 / RIB 40), pH 2.7, CD, glycine 30 mM, reversible: yes (>95%)
[2] = Aspergillus oryzae (strain ATCC 42149 / RIB 40), pH 2.7, Fluorescence, glycine 30 mM, transition: 2, reversible: Yes
[3] = Aspergillus oryzae (strain ATCC 42149 / RIB 40), pH 7, CD, MOPS 30 mM, reversible: yes (>95%)
[4] = Aspergillus oryzae (strain ATCC 42149 / RIB 40), pH 7, Fluorescence, MOPS 30 mM, transition: 2, reversible: Yes
[5] = Aspergillus oryzae (strain ATCC 42149 / RIB 40), pH 7, CD, MOPS 30 mM, transition: 2, reversible: Yes
[6] = Kitasatospora aureofaciens, pH 2, CD, MOPS 30 mM, transition: 2, reversible: Yes
[7] = Kitasatospora aureofaciens, pH 7, CD, MOPS 30 mM, reversible: yes (>95%)
[8] = Kitasatospora aureofaciens, pH 7, CD, MOPS 30 mM, transition: 2, reversible: Yes

B1: Guanyl-specific ribonuclease T1 wild type, P00651 (protein)
chain: MMYSKLLTLTTLLLPTALALPSLVERACDYTCGSNCYSSSDVSTAQAAGYQLHEDGETVGSNSYPHKYNNYEGFDFSVSSPYYEWPILSSGDVYSGGSPGADRVVFNENNQLAGVITHTGASGNNFVECT
denaturant m value [1]: 1.64 kcal/mol/M
denaturant midpoint (higher = more stable) [1]: 3.75 M
unfolding free energy [1]: 6.13 kcal/mol
denaturant m value [2]: 1.64 kcal/mol/M
denaturant midpoint (higher = more stable) [2]: 3.75 M
unfolding free energy [2]: 6.13 kcal/mol
denaturant m value [3]: 1.17 kcal/mol/M
denaturant midpoint (higher = more stable) [3]: 5.2 M
unfolding free energy [3]: 6.09 kcal/mol
denaturant m value [4]: 1.17 kcal/mol/M
denaturant midpoint (higher = more stable) [4]: 5.2 M
unfolding free energy [4]: 6.09 kcal/mol
Tm [3]: 50.8 °C
unfolding enthalpy (van 't Hoff) [3]: 96.6 kcal/mol
Tm [5]: 50.8 °C
unfolding enthalpy (van 't Hoff) [5]: 96.6 kcal/mol

B2: Guanyl-specific ribonuclease Sa wild type, P05798 (protein)
chain: DVSGTVCLSALPPEATDTLNLIASDGPFPYSQDGVVFQNRESVLPTQSYGYYHEYTVITPGARTRGTRRIITGEATQEDYYTGDHYATFSLIDQTC
Tm [6]: 28 °C
unfolding enthalpy (van 't Hoff) [6]: 58.8 kcal/mol
Tm [7]: 48.4 °C
unfolding enthalpy (van 't Hoff) [7]: 92.4 kcal/mol
Tm [8]: 48.4 °C
unfolding enthalpy (van 't Hoff) [8]: 92.4 kcal/mol
